# Measured values published in PMC4453921, “Crystal structure of caspase recruiting domain (CARD) of apoptosis repressor with CARD (ARC) and its implication in inhibition of apoptosis” (Scientific Reports, 2015).
# Target: the molecule itself
# Experiment: SEC-MALS; Superdex 200 HR 10/30 equilibrated in appropriate buffer, coupled to three-angle light scattering and refractive index detectors, 0.2 ml/min
protein,measurement,value
"ARC CARD domain (amino acids 1-95), wild type (domain or fragment, human, UniProt O60936 1-95, looked up, Apoptosis repressor with caspase recruiting domain (ARC), human (208 amino acids), CARD domain, amino acids 1-95; Expression and purification are said to be described in detail elsewhere; A selenomethionine-substituted form was made for SAD phasing; also called CARD domain of ARC; caspase recruiting domain of apoptosis repressor with CARD; not shown: His-tag, C-terminal, kept) MGNAQERPSETIDRERKRLVETLQADSGLLLDALLARGVLTGPEYEALDALPDAERRVRRLLLLVQGKGEAACQELLRCAQRTAGAPDPAWDWQH",stoichiometry N,2
